The values below come from patent US8323941B2, “Histone demethylation mediated by the nuclear amine oxidase homolog LSD1” (President and Fellows of Harvard College, priority 2004, dated 2012).

One test concerns the target T1, GST-LSD1 (Homo sapiens, UniProt O60341).
T1 construct: made in house; host or cells: bacteria (inferred from 'similar procedure' to the His-tagged proteins)
Kind of test: GST pulldown of HIS-tagged CoREST and mutants. It is filed as binding. Particulars: Coomassie Blue staining. The protocol: To identify domains of CoREST that are involved in physical interactions with LSD1, GST-LSD1 or GST was incubated with bacterially purified, HIS-tagged CoREST and its mutant derivatives. […] This places the putative LSD1-binding domain within the C-terminal functional domain of CoREST, somewhere between aa 293-381 of CoREST. […] We therefore speculate that the SANT2 domain may be involved in mediate binding to the nucleosomal substrate. Taken together, these findings are consistent with the idea that CoREST functions as a bridging protein. The weak stimulatory activity of the N-terminal CoREST (del1, aa 1-293) remains unclear at the present time.
GST and GSTLSD1 plamsids were kind gifts from Dr. Tadashi Baba's Lab in Japan (Iwase et al., 2004). Expression and purification of GST and GSTLSD1 proteins were done using similar procedure as outlined for purification of his-tagged recombinant proteins. For GST-bead pulldown experiment, 2 μg of each purified his-tagged wt or del CoREST proteins were incubated with 5 μg of bound GST and GSTLSD1 proteins at 4° C. for 4 hrs in a binding buffer (50 mM Tris, pH 8.0, 300 mM NaCl, 1 mM DTT, 0.5 mM EDTA and 0.1% NP-40). The beads were washed 3 times in the binding buffer, resuspended in 2×SDS protein sample buffer, boiled for 5 mins and loaded onto 15% SDS PAGE gel. The gel was then stained with Coomassie Blue.

In a further test the target is T2, LSD1 (Homo sapiens, UniProt O60341).
T2 construct: Full length (1-851aa) and C-terminal deleted (1-427 aa) human LSD1 cDNAs; 6xHis (N); made in house; host or cells: bacteria
Kind of test: LSD1 demethylation assay on nucleosomal substrates (mononucleosomes), Western blotting. In kind it is biochemical. The following applies: CoREST deletion mutant. On the procedure:
Preparation of mononucleosome. Mononucleosome was made according to a standard protocol (Tagami et al., 2004; Utley et al., 1996). Briefly, nuclear pellet from both TSA-treated or non-treated HeLa cells was homogenized for 60 times with type A pestle to obtain oligo-nucleosomes. The oligo-nucleosomes were then digested with micrococcal nuclease (40 units/mL) for 10 mins at 30° C. The nuclease is inactivated by 5 mM EDTA. Digested materials were spun at 14000 rpm for 3 mins. Resulting supernatant was spun again for additional 3 mins at the same speed. Supernatant from the second spin was subject to 10-25% glycerol gradient sedimentation. The monocleosome-containing fractions were identified by examining aliquots of fractions (treated with proteinase K) on DNA agarose gel. An aliquot of TSA-treated or non TSA-treated mononucleosome, a kind gift from Dr. Yoshihiro Nakatani's Lab in Dana Faber Cancer Institute, Harvard Medical School (Tagami et al., 2004), was used here as a control for the quality of mononucleosome made in our lab.
Demethylation assay. LSD1 demethylation activity on free histone or nucleosomal histone was carried out as previously reported (Shi et al., 2004). […] The demethylase activity of LSD1 under various conditions was evaluated by Western blotting using K4-H3 methylation-specific antibodies.
For orientation: A western blot detects proteins with antibodies after separation by electrophoresis.

B1: del 1: CoREST deletion mutant aa 1-293 (protein)
chain: MVEKGPEVSGKRRGRNNAAASASAAAASAAASAACASPAATAASGAAASSASAAAASAAAAPNNGQNKSLAAAAPNGNSSSNSWEEGSSGSSSDEEHGGGGMRVGPQYQAVVPDFDPAKLARRSQERDNLGMLVWSPNQNLSEAKLDEYIAIAKEKHGYNMEQALGMLFWHKHNIEKSLADLPNFTPFPDEWTVEDKVLFEQAFSFHGKTFHRIQQMLPDKSIASLVKFYYSWKKTRTKTSVMDRHARKQKREREESEDELEEANGNNPIDIEVDQNKESKKEVPPTETVPQV
modifications: left off: small tags and cut ends
Turning to B1, in the test with GST-LSD1, the “binding to LSD1” value is “did not”. The “stimulatory activity on LSD1 demethylation” value in the test with LSD1 is given as ~30 % of the wildtype CoREST activity.

B2: del 4: CoREST deletion mutant aa 105-293 (protein)
chain: GPQYQAVVPDFDPAKLARRSQERDNLGMLVWSPNQNLSEAKLDEYIAIAKEKHGYNMEQALGMLFWHKHNIEKSLADLPNFTPFPDEWTVEDKVLFEQAFSFHGKTFHRIQQMLPDKSIASLVKFYYSWKKTRTKTSVMDRHARKQKREREESEDELEEANGNNPIDIEVDQNKESKKEVPPTETVPQV
modifications: left off: small tags and cut ends
Turning to B2, the “binding to LSD1” value with GST-LSD1 is reported as “did not”.
